Test results reported in the supplement of paper PMC11316812.
± gives the standard deviation of the averaged measurements.

Assays:
hTERT-HMEC = assay: percentage of EdU-negative (G0-arrested) nuclei per well, 72 h; higher = more G0 arrest; settings: reference: sequence is the full UniProt precursor, the tested protein was the secreted form or ectodomain
MCF7 = assay: as above; settings: reference: sequence is the full UniProt precursor, the tested protein was the secreted form or ectodomain
[1] = protein concentration 0.00828571 µM
[2] = protein concentration 0.0828571 µM
[3] = protein concentration 0.00975 µM
[4] = protein concentration 0.0975 µM
[5] = protein concentration 0.03125 µM
[6] = protein concentration 0.3125 µM
[7] = protein concentration 0.0225 µM
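Further: secreted proteins added to cultured cells, EdU pulse at the end, nuclei found by Hoechst imaging, EdU status from nuclear versus surrounding ring intensity ratio, PBS as neutral control.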

MAPRTLWSCYLCCLLTAAAGAASYPPRGFSLYTGSSGALSPGGPQAQIAPRPASRHRNWCAYVVTRTVSCVLEDGVETYVKYQPCAWGQPQCPQSIMYRRFLRPRYRVAYKTVTDMEWRCCQGYGGDDCAESPAPALGPASSTPRPLARPARPNLSGSSAGSPLSGLGGEGPGESEKVQQLEEQVQSLTKELQGLRGVLQGLSGRLAEDVQRAVETAFNGRQQPADAAARPGVHETLNEIQHQLQLLDTRVSTHDQELGHLNNHHGGSSSSGGSRAPAPASAPPGPSEELLRQLEQRLQESCSVCLAGLDGFRRQQQEDRERLRAMEKLLASVEERQRHLAGLAVGRRPPQECCSPELGRRLAELERRLDVVAGSVTVLSGRRGTELGGAAGQGGHPPGYTSLASRLSRLEDRFNSTLGPSEEQEESWPGAPGGLSHWLPAARGRLEQLGGLLANVSGELGGRLDLLEEQVAGAMQACGQLCSGAPGEQDSQVSEILSALERRVLDSEGQLRLVGSGLHTVEAAGEARQATLEGLQEVVGRLQDRVDAQDETAAEFTLRLNLTAARLGQLEGLLQAHGDEGCGACGGVQEELGRLRDGVERCSCPLLPPRGPGAGPGVGGPSRGPLDGFSVFGGSSGSALQALQGELSEVILSFSSLNDSLNELQTTVEGQGADLADLGATKDRIISEINRLQQEATEHATESEERFRGLEEGQAQAGQCPSLEGRLGRLEGVCERLDTVAGGLQGLREGLSRHVAGLWAGLRETNTTSQMQAALLEKLVGGQAGLGRRLGALNSSLQLLEDRLHQLSLKDLTGPAGEAGPPGPPGLQGPPGPAGPPGSPGKDGQEGPIGPPGPQGEQGVEGAPAAPVPQVAFSAALSLPRSEPGTVPFDRVLLNDGGYYDPETGVFTAPLAGRYLLSAVLTGHRHEKVEAVLSRSNQGVARVDSGGYEPEGLENKPVAESQPSPGTLGVFSLILPLQAGDTVCVDLVMGQLAHSEEPLTIFSGALLYGDPELEHA [A0A0C4DFX3]
percentage of EdU-negative (hTERT-HMEC; [1]): 4.9 ± 0.43% | percentage of EdU-negative (hTERT-HMEC; [2]): 4.36 ± 0.72% | percentage of EdU-negative (MCF7; [1]): 26.3 ± 1.3% | percentage of EdU-negative (MCF7; [2]): 30.4 ± 3.6%

MVAATVAAAWLLLWAAACAQQEQDFYDFKAVNIRGKLVSLEKYRGSVSLVVNVASECGFTDQHYRALQQLQRDLGPHHFNVLAFPCNQFGQQEPDSNKEIESFARRTYSVSFPMFSKIAVTGTGAHPAFKYLAQTSGKEPTWNFWKYLVAPDGKVVGAWDPTVSVEEVRPQITALVRKLILLKREDL [Q96SL4]
percentage of EdU-negative (hTERT-HMEC; [3]): 4.59 ± 0.052% | percentage of EdU-negative (hTERT-HMEC; [4]): 5.66 ± 0.28% | percentage of EdU-negative (MCF7; [3]): 25.2 ± 2% | percentage of EdU-negative (MCF7; [4]): 27.1 ± 1.4%

MSRLPVLLLLQLLVRPGLQAPMTQTTPLKTSWVNCSNMIDEIITHLKQPPLPLLDFNNLNGEDQDILMENNLRRPNLEAFNRAVKSLQNASAIESILKNLLPCLPLATAAPTRHPIHIKDGDWNEFRRKLTFYLKTLENAQAQQTTLSLAIF
percentage of EdU-negative (hTERT-HMEC; [5]): 5.21 ± 0.57% | percentage of EdU-negative (hTERT-HMEC; [6]): 4.85 ± 0.58% | percentage of EdU-negative (MCF7; [5]): 27.8 ± 0.94% | percentage of EdU-negative (MCF7; [6]): 23.6 ± 1.8%

MERRAWSLQCTAFVLFCAWCALNSAKAKRQFVNEWAAEIPGGPEAASAIAEELGYDLLGQIGSLENHYLFKHKNHPRRSRRSAFHITKRLSDDDRVIWAEQQYEKERSKRSALRDSALNLFNDPMWNQQWYLQDTRMTAALPKLDLHVIPVWQKGITGKGVVITVLDDGLEWNHTDIYANYDPEASYDFNDNDHDPFPRYDPTNENKHGTRCAGEIAMQANNHKCGVGVAYNSKVGGIRMLDGIVTDAIEASSIGFNPGHVDIYSASWGPNDDGKTVEGPGRLAQKAFEYGVKQGRQGKGSIFVWASGNGGRQGDNCDCDGYTDSIYTISISSASQQGLSPWYAEKCSSTLATSYSSGDYTDQRITSADLHNDCTETHTGTSASAPLAAGIFALALEANPNLTWRDMQHLVVWTSEYDPLANNPGWKKNGAGLMVNSRFGFGLLNAKALVDLADPRTWRSVPEKKECVVKDNDFEPRALKANGEVIIEIPTRACEGQENAIKSLEHVQFEATIEYSRRGDLHVTLTSAAGTSTVLLAERERDTSPNGFKNWDFMSVHTWGENPIGTWTLRITDMSGRIQNEGRIVNWKLILHGTSSQPEHMKQPRVYTSYNTVQNDRRGVEKMVDPGEEQPTQENPKENTLVSKSPSSSSVGGRRDELEEGAPSQAMLRLLQSAFSKNSPPKQSPKKSPSAKLNIPYENFYEALEKLNKPSQLKDSEDSLYNDYVDVFYNTKPYKHRDDRLLQALVDILNEEN
percentage of EdU-negative (hTERT-HMEC; protein concentration 0.009 µM): 4.928 ± 0.013% | percentage of EdU-negative (hTERT-HMEC; protein concentration 0.09 µM): 7.51 ± 0.97% | percentage of EdU-negative (MCF7; protein concentration 0.009 µM): 25.7 ± 4% | percentage of EdU-negative (MCF7; protein concentration 0.09 µM): 27.832 ± 0.026%

MTLTLSVLICLGLSVGPRTCVQAGTLPKPTLWAEPASVIARGKPVTLWCQGPLETEEYRLDKEGLPWARKRQNPLEPGAKAKFHIPSTVYDSAGRYRCYYETPAGWSEPSDPLELVATGFYAEPTLLALPSPVVASGGNVTLQCDTLDGLLTFVLVEEEQKLPRTLYSQKLPKGPSQALFPVGPVTPSCRWRFRCYYYYRKNPQVWSNPSDLLEILVPGVSRKPSLLIPQGSVVARGGSLTLQCRSDVGYDIFVLYKEGEHDLVQGSGQQPQAGLSQANFTLGPVSRSHGGQYRCYGAHNLSPRWSAPSDPLDILIAGLIPDIPALSVQPGPKVASGENVTLLCQSWHQIDTFFLTKEGAAHPPLCLKSKYQSYRHQAEFSMSPVTSAQGGTYRCYSAIRSYPYLLSSPSYPQELVVSGPSGDPSLSPTGSTPTPGPEDQPLTPTGLDPQSGLGRHLGVVTGVSVAFVLLLFLLLFLLLRHRHQSKHRTSAHFYRPAGAAGPEPKDQGLQKRASPVADIQEEILNAAVKDTQPKDGVEMDAPAAASEAPQDVTYAQLHSLTLRREATEPPPSQEREPPAEPSIYAPLAIH
percentage of EdU-negative (hTERT-HMEC; [7]): 5.56 ± 0.57% | percentage of EdU-negative (hTERT-HMEC; protein concentration 0.225 µM): 4.64 ± 0.082% | percentage of EdU-negative (MCF7; [7]): 26.64 ± 0.18% | percentage of EdU-negative (MCF7; protein concentration 0.225 µM): 24.8 ± 1.6%
